{"source": "patent US20220177548A1", "about": "(WISTAR INSTITUTE OF ANATOMY AND BIOLOGY, published 2022)"}
{"molecular_target": "HLA-A2 (on T2 cells) (human)", "assay": "T2 cell binding assay, fluorescence index by flow cytometry"}
{"binder": "LATEKSRWSL (Synthetic 10-mer)", "note": "[Modified 6 (modified BRAFV600E peptide LATEKSRWSL)]", "T2 Binding (FI)": "0.6 FI = (MFI peptide/MFI w/o peptide) - 1"}
{"binder": "LATEKSRWSI (Synthetic 10-mer)", "note": "[Modified 5 (modified BRAFV600E peptide LATEKSRWSI)]", "T2 Binding (FI)": "0.7 FI = (MFI peptide/MFI w/o peptide) - 1"}
{"binder": "LATEKSRWSV (Synthetic 10-mer)", "note": "[Modified 7 (modified BRAFV600E peptide LATEKSRWSV)]", "T2 Binding (FI)": "1 FI = (MFI peptide/MFI w/o peptide) - 1"}
{"binder": "LLTEKSRWSG (Synthetic 10-mer)", "note": "[Modified 3 (modified BRAFV600E peptide LLTEKSRWSG)]", "T2 Binding (FI)": "0.9 FI = (MFI peptide/MFI w/o peptide) - 1"}
{"binder": "LLTEKSRWSV (Synthetic 10-mer)", "note": "[Modified 4 (modified BRAFV600E peptide LLTEKSRWSV)]", "T2 Binding (FI)": "6.5 FI = (MFI peptide/MFI w/o peptide) - 1"}
{"binder": "LATEKSRWSG (Synthetic 10-mer)", "note": "[Unmodified 2 (human BRAFV600E peptide LATEKSRWSG, amino acids 597-606 of BRAFV600E)]", "T2 Binding (FI)": "1.1 FI = (MFI peptide/MFI w/o peptide) - 1"}
{"binder": "LITEKSRWSG (Synthetic 10-mer)", "note": "[Modified 1 (modified BRAFV600E peptide LITEKSRWSG)]", "T2 Binding (FI)": "1 FI = (MFI peptide/MFI w/o peptide) - 1"}
{"binder": "LMTEKSRWSG (Synthetic 10-mer)", "note": "[Modified 2 (modified BRAFV600E peptide LMTEKSRWSG)]", "T2 Binding (FI)": "0.8 FI = (MFI peptide/MFI w/o peptide) - 1"}
